Reference: US20240317852A1 (Molecular Partners, published 2024)
Numbering of substitutions follows the chain as printed.

B1: DARPin® protein #11 (engineered variant of DARPin® protein #9) (designed binder)
chain: DLGYKLLWAASAGQDDEVRELLKAGADVNAKDKDGATPLHFAAAKGHLEIVEVLLKAGADVNAKDNRGATPLHYVAAASGHLEIVEVLLKAGADVNAQDEWGNTPADLAAIYGHEDIAEVLQKAA
B2: DARPin® protein #12 (engineered variant of DARPin® protein #9) (designed binder)
chain: B1 chain with Y4V, E115G
B3: DARPin® protein #10 (engineered variant of DARPin® protein #9) (designed binder)
chain: DLGYKLLWAASAGQDDEVRELLKAGADVNAKDKDGATPLHFAAAKGHLEIVEVLLKAGADVNAKDNRGATPLHYAAASGHLEIVEVLLKAGADVNAQDEWGNTPADLAAIYGHGDIAEVLQKAA
B4: DARPin® protein #13 (engineered variant of DARPin® protein #9) (designed binder)
chain: B3 chain with G114E
B5: DARPin® protein #29 in monospecific (single domain) format (designed binder)
chain: MRGSHHHHHHGSDLGVKLLLAAERGQLDEVRILLKAGADVNAKDIAEGYTPLHIAAYQGHLEIVEVLLKAGADVNAKDRYGKTPLHLAAIGGHLEIVEVLLKAGADVNAQDNKGSTPADLAADYGHQDIAEVLQKAA
notes: the same molecule is used here
B6: DARPin® protein #2 in monospecific (single domain) format (designed binder)
chain: B5 chain with E23S, A46D, Q58Y, G91S, N112D, S115D
B7: DARPin® protein #30 in monospecific (single domain) format (designed binder)
chain: B5 chain with V16K, I45R, G91S
notes: as for B5
B8: DARPin® protein #7 in TCE format (formatted with a CD3-specific ankyrin repeat domain) (designed binder)
chain: MRGSHHHHHHGSDLGLKLLRAAYDGQDDEVRILLAAGADVNAKDWQGFTPLHYAAVLGHLEIVEVLLKAGADVNAKDQEGATPLHLAALHGHLEIVEVLLKAGADVNAQDESGWTPADLAAKWGHEDIAEVLQKAA
notes: Crude extract HTRF construct also carried a C-terminal Flag tag; not shown: which one,
B9: DARPin® protein #3 in TCE format (formatted with a CD3-specific ankyrin repeat domain) (designed binder)
chain: MRGSHHHHHHGSDLGVKLLRAAFHGQDDEVRILLAAGADVNAKDTDGETPLHYAAQFGHLEIVEVLLKAGADVNAKDAYGATPLHWAAWHGHLEIVEVLLKAGADVNAQDVSGATPADLAAKVGHEDIAEVLQKAA
notes: as for B8
B10: DARPin® protein #1 in TCE format (formatted with a CD3-specific ankyrin repeat domain) (designed binder)
chain: MRGSHHHHHHGSDLGWKLLLAASRGQDDEVRILLAAGADVNAKDIDEGYTPLHIAAYYGHLEIVEVLLKAGADVNAKDRYGKTPLHLAAISGHEDIAEVLLKAGADVNAQDDKGDTPADLAADYGHEDIAEVLQKAA
notes: not shown: which one,
B11: DARPin® protein #8 in TCE format (formatted with a CD3-specific ankyrin repeat domain) (designed binder)
chain: MRGSHHHHHHGSDLGWKLLSAATLGQDDEVRILLAAGADVNAKDEWGKTPLHWAASTGHLEIVEVLLKAGADVNAKDLWGHTPLHEAAAKGHLEIVEVLLKAGADGNAQDNIGDTPADLAAYQGHEDIAEVLQKAA
notes: as for B8
B12: DARPin® protein #15 in TCE format (formatted with a CD3-specific ankyrin repeat domain) (designed binder)
chain: MRGSHHHHHHGSDLGKKLLQAARAGQLDEVRELLKAGADVNAKDLIGWTPLHLAAHYGHLEIVEVLLKAGADVNAKDAQGWTPLHIAAWEGHLEIVEVLLKAGADVNAKDWTGETPLHLAAFEGHLEIVEVLLKAGADVNAQDKSGKTPADLAARAGHQDIAEVLQKAA
notes: as for B8
B13: DARPin® protein #5 in TCE format (formatted with a CD3-specific ankyrin repeat domain) (designed binder)
chain: B12 chain with G15S, L45Q, W48Q, H56Q, Y57S, A78T, Q79E, I86V, F122Y, E123Q
notes: as for B8
B14: DARPin® protein #9 in TCE format (formatted with a CD3-specific ankyrin repeat domain) (designed binder)
chain: MRGSHHHHHHGSDLGYKLLWAASAGQDDEVRILLAAGADVNAKDKDGATPLHFAAAKGHLEIVEVLLKAGADVNAKDNRGATPLHYVAAASGHLEIVEVLLKAGADVNAQDEWGNTPADLAAIYGHGDIAEVLQKAA
notes: as for B8
B15: DARPin® protein #14 in TCE format (formatted with a CD3-specific ankyrin repeat domain) (designed binder)
chain: MRGSHHHHHHGSDLGWKLLNAAIAGQDDEVRILLAAGADVNAKDTEYGWTPLHIAASDGHLEIVEVLLKAGADVNAKDYAGSTPLHAAAFVGHLEIVEVLLKAGADVNAQDHQGQTPADLAAQQGHVDIAEVLQKAA
notes: as for B8

Biological target: T1, biotinylated human CD33 full-length extracellular domain (residues 18-259) with C-terminal Fc tag and Avi tag (human, UniProt P20138 18-259, biotinylated with BirA-GST (Avi tag))
T1 construct: Bought from Evitria; also called bio.hCD33; bio.hCD33 full-length target; not shown: C-terminal Fc tag and Avi tag
Experiment: HTRF

T1 sequence (P20138 18-259 R69G limits assumed): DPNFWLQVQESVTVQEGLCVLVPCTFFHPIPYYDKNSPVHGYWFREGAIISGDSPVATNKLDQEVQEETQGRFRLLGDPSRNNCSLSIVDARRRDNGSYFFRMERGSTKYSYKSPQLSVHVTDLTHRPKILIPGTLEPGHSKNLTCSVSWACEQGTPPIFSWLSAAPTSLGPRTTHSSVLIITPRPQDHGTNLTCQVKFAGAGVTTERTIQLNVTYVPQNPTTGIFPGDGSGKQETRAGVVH

| Binder | binding result |
| --- | --- |
| B1 | binds |
| B2 | binds |
| B3 | binds |
| B4 | binds |

Biological target: T2, human CD33 expressed on Molm-13 tumor cells (human, UniProt P20138 18-364)
T2 construct: whole, on cells; also called CD33 expressed on the surface of cells; CD33-expressing tumor cells (Molm-13 N1)
Experiment: flow cytometry on CD33-expressing Molm-13 N1 cells, anti-DARPin antibody detection
Method: Binding of binding proteins of the invention to CD33 expressed on the surface of cells was analyzed by fluorescence activated cell sorting (FACS) flow cytometry. For this purpose. CD33-expressing tumor cells (Molm-13 N1) were seeded at 100,000 cells per well in a 96 well plate. DARPin® protein #2, DARPin protein #29, and DARPin® protein #30, in monospecific format, were titrated down In 1:5 dilution ratio starting at 2000 nM. Tumor cells were resuspended with diluted DARPin proteins and incubated for 60 minutes at 4° C. The assay was performed in PBS Including 2% fetal bovine serum without human serum albumin (HSA). After washing twice with Phosphate Buffer saline (PBS), DARPin® protein specific tumor call binding was detected by adding unlabeled primary […] (anti-rabbit 1-1-1 antibody, CePower) at 2 μg/ml. An incubation step of at least 30 minutes at 4° C. followed. Afterwards, cells were washed with PBS and a secondary goat anti-rabbit antibody labelled with Alexa Fluor 488 antibody (ThermoFisher) at 2 ug/ml was added. The same incubation conditions applied. Finally, the cells were washed twice and resuspended in Cytofix fixation buffer (BD Biosciences) for 15 min at room temperature (RT).

T2 sequence (P20138 18-364): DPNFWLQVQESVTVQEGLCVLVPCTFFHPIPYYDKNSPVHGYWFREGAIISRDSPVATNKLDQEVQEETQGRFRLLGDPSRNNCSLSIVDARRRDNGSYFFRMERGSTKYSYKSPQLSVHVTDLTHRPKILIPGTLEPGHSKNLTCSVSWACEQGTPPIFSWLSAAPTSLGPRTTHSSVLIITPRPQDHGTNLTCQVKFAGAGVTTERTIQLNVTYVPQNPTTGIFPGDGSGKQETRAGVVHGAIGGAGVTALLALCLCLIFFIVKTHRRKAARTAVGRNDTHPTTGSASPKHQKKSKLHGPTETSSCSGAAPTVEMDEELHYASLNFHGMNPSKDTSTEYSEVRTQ

| Binder | EC50 [nM] |
| --- | --- |
| B5 | 0.32 |
| B6 | 1.2 |
| B7 | 1.9 |

Biological target: T1, biotinylated human CD33 full-length …
Experiment: SPR (ProteOn), bio.hCD33 full length on NLC chip, DARPin at 100 nM, 1:1 Langmuir fit
Method: Moreover, the binding affinities of two additional purified ankyrin repeat proteins on recombinant human CD33 target were measured and analyzed with a similar procedure as described above for DARPin proteins #1, #3, #6, #7-#9 and #14-#16. Briefly, bio.hCD33 was coaled on NLC chip (BioRad) to a level of 1180 RU. DARPin® protein #29 and DARPin® protein #30 were applied as analyte at a single concentration of 100 nM with a 120 s association and 1200 s dissociation phase at a constant flow of 100 ul/min. The target was regenerated with 4M MgCl2. The signals were double referenced against the running buffer (PBST-PBS pH 7.4 containing 0.005% Tween 200) treated control lane of L1 and A6. The 1:1 Langmuir model was used for the fitting.

| Binder | Kd [nM] |
| --- | --- |
| B5 | 0.62 |
| B7 | 0.88 |

Biological target: T2, human CD33 expressed on Molm-13 tumor …
Experiment: flow cytometry on MOLM13 cells

| Binder | binding result |
| --- | --- |
| B1 | binds |
| B2 | binds |
| B3 | binds |
| B4 | binds |

Biological target: T1, biotinylated human CD33 full-length …
Experiment: SPR (ProteOn XPR36), biotinylated full-length CD33 ECD on NLC chip, DARPin at 50 nM, single trace
Method: Briefly, SPR measurements were performed using a ProteOn XPR36 instrument (BioRad). The running buffer was PBS pH 7.4 containing 0.005% Tween 20® (PBST). The bio.hCD33 full-length target (SEQ ID NO: 60) was immobilized on NLC chips (BioRad) to a level of 540 RU and the spliced variant (SEQ ID NO: 61) to a level of 560RU. The interaction of the 96 well purified CD33-specific binding proteins in TCE format to the full-length and the spliced variant of CD33 ECD were measured by injecting the binding protein at 50 nM with an association of 120s and dissociation of 1200s using a constant flow of […]. The target was regenerated between the individual measurements using 2M MgCl₂. The signals were double referenced against the running buffer (PBST) treated control lane.
Dissociation constants (KD) were calculated from the estimated on- and off-rates using standard procedures known to the person skilled in the art. […] The values in Table 2a are averages of multiple replicates.

| Binder | Kd [nM] |
| --- | --- |
| B8 | 0.47 |
| B9 | 7.4 |
| B10 | 4.8 |
| B11 | 2.3 |
| B12 | 17 |
| B13 | 12 |
| B14 | 0.76 |
| B15 | 0.64 |
